The results in this text go back to paper doi:10.1101/2024.12.19.629503.

In this assay the target is di-nucleosome of X. laevis histone octamers on two Widom 601 sequences (unmodified) (X. laevis). The experiment in a line: cryo-EM structure.

As to “DNMT3A2/3B3 hetero-tetramer (from UniProt Q9UBC3-3 1-770) (complex)”, the stoichiometry N (hetero-tetramers per di-nucleosome) is 2.
